In this experiment the target is TRC35 (residues 23 to 305) (human, UniProt Q7L5D6 23-305). Description: crystal structure.
Chain of TRC35 (residues 23 to 305) (Q7L5D6 23-305): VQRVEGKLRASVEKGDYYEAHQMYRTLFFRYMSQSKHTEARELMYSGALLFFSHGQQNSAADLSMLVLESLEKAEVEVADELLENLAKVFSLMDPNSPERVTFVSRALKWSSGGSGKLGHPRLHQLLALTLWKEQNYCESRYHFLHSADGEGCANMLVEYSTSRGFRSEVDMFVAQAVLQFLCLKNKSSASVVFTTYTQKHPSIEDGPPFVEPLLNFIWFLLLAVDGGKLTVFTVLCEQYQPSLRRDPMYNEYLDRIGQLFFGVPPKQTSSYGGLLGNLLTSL

B1: Bag6 minimal TRC35-binding domain containing the NLS (residues 1000-1054) (domain or fragment)
chain: ETEPWAAAVPPEWVPIIQQDIQSQRKVKPQPPLSDAYLSGMPAKRRKTMQGEGPQ
As for B1, the binding result was “binds”.

Source of the values: publication doi:10.1101/154351 (bioRxiv, 2017).
